Like-named read-outs stand apart in the source and are kept apart here.
Assays:
[1] = target: human 4-1BB on Jurkat-hu4-1BB-NFκB-luc2 reporter cells (human) (UniProt Q07011); experiment: cell-based or functional assay; set-up: AUC of activation curve, Jurkat-hu4-1BB-NFκB-luc2, no CEA+ cells / AUC of activation curve, Jurkat-hu4-1BB-NFκB-luc2 with CHO-k1-cyno CEACAM5 clone 8: unit not given beside the values
[2] = target: human CEACAM5 (carcinoembryonic antigen, CEA) on cells (human) (UniProt P06731); experiment: cell-based or functional assay
[3] = target: cynomolgus monkey CEACAM5 on CHO-k1-cynoCEACAM5 clone 8 cells (cynomolgus monkey); experiment: cell-based or functional assay; set-up: AUC of activation curve, Jurkat-hu4-1BB-NFκB-luc2, no CEA+ cells / AUC of activation curve, Jurkat-hu4-1BB-NFκB-luc2 with CHO-k1-cyno CEACAM5 clone 8: unit not given beside the values
[4] = target: human CEACAM5 (carcinoembryonic antigen, CEA) on cells (human) (UniProt P06731); experiment: cell-based or functional assay; set-up: AUC of activation curve, Jurkat-hu4-1BB-NFκB-luc2, no CEA+ cells / AUC of activation curve, Jurkat-hu4-1BB-NFκB-luc2 with CHO-k1-cyno CEACAM5 clone 8: unit not given beside the values
[5] = target: human CEACAM5 (carcinoembryonic antigen, CEA) on cells (human) (UniProt P06731); experiment: flow cytometry, CHO-k1-huCEACAM5 clone 11; set-up: unit not given beside the values
[6] = target: human CEACAM5 (carcinoembryonic antigen, CEA) on cells (human) (UniProt P06731); experiment: flow cytometry, CHO-k1-huCEACAM5 clone 12; set-up: unit not given beside the values
[7] = target: human CEACAM5 (carcinoembryonic antigen, CEA) on cells (human) (UniProt P06731); experiment: flow cytometry, CHO-k1-huCEACAM5 clone 13; set-up: unit not given beside the values
[8] = target: human CEACAM5 (carcinoembryonic antigen, CEA) on cells (human) (UniProt P06731); experiment: flow cytometry, CHO-k1-huCEACAM5 clone 17; set-up: unit not given beside the values
[9] = target: human CEACAM5 (carcinoembryonic antigen, CEA) on cells (human) (UniProt P06731); experiment: flow cytometry, CHO-k1-huCEACAM5 clone 11; set-up: unit not given beside the values; remark: listed apart in the source
[10] = target: human CEACAM5 (carcinoembryonic antigen, CEA) on cells (human) (UniProt P06731); experiment: flow cytometry, CHO-k1-huCEACAM5 clone 12; set-up: unit not given beside the values; remark: listed apart in the source
[11] = target: cynomolgus monkey CEACAM5 on CHO-k1-cynoCEACAM5 clone 8 cells (cynomolgus monkey); experiment: flow cytometry, CHO-k1-cynoCEACAM5 clone 8; set-up: unit not given beside the values
[12] = target: cynomolgus monkey CEACAM5 on CHO-k1-cynoCEACAM5 clone 8 cells (cynomolgus monkey); experiment: flow cytometry, CHO-k1-cynoCEACAM5 clone 8; set-up: unit not given beside the values; remark: listed apart in the source
[13] = target: human CEACAM5 (carcinoembryonic antigen, CEA) on cells (human) (UniProt P06731); experiment: flow cytometry, MKN45 cells; set-up: unit not given beside the values

Chain of human 4-1BB on Jurkat-hu4-1BB-NFκB-luc2 reporter cells (human) (Q07011 24-255 limits assumed): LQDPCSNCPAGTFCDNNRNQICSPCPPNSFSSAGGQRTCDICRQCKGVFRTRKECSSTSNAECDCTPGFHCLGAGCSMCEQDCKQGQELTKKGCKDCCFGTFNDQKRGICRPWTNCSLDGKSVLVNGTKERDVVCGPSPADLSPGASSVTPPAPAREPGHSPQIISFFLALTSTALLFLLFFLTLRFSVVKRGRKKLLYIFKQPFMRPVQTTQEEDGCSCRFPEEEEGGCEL
Chain of human CEACAM5 (carcinoembryonic antigen, CEA) on cells (human) (P06731 35-685 E398K limits assumed): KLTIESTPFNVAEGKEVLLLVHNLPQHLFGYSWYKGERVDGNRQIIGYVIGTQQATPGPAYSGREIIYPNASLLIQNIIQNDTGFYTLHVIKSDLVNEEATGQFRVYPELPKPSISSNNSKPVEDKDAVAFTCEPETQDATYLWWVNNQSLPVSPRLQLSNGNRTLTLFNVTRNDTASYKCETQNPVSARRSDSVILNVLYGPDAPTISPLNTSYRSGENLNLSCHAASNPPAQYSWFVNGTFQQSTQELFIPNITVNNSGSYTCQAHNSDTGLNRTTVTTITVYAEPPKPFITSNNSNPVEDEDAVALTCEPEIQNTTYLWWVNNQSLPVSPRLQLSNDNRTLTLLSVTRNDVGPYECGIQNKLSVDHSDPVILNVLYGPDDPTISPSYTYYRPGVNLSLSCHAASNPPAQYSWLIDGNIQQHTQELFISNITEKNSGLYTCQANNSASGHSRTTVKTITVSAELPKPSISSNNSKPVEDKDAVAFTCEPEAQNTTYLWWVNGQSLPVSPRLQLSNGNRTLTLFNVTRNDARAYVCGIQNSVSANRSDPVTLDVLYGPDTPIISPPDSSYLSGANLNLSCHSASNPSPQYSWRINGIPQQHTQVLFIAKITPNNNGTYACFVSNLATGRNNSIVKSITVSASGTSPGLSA

## CEA (MEDI-565)-4-1BBL (Fc fusion)
[1]
  AUC of activation curve, Jurkat-hu4-1BB-NFκB-luc2, no CEA+ cells: 2270

## CEA(sm9b)-4-1BBL (Fc fusion)
[2]
  EC50, NFκB-luciferase in Jurkat-hu4-1BB-NFκB-luc2 with CHO-k1-human CEACAM5 clone 11: 50 pM
  EC50, NFκB-luciferase in Jurkat-hu4-1BB-NFκB-luc2 with CHO-k1-human CEACAM5 clone 12: 30 pM
[3]
  AUC of activation curve, Jurkat-hu4-1BB-NFκB-luc2 with CHO-k1-cyno CEACAM5 clone 8: 3970
[1]
  AUC of activation curve, Jurkat-hu4-1BB-NFκB-luc2, no CEA+ cells: 2810
[4]
  AUC of activation curve, Jurkat-hu4-1BB-NFκB-luc2 with CHO-k1-human CEACAM5 clone 11: 162000
  AUC of activation curve, Jurkat-hu4-1BB-NFκB-luc2 with CHO-k1-human CEACAM5 clone 12: 164000

## CEA(sm9b)-4-1BBL single chain (Fc fusion)
[2]
  EC50, NFκB-luciferase in Jurkat-hu4-1BB-NFκB-luc2 with CHO-k1-human CEACAM5 clone 11: 90 pM
  EC50, NFκB-luciferase in Jurkat-hu4-1BB-NFκB-luc2 with CHO-k1-human CEACAM5 clone 12: 70 pM
[3]
  AUC of activation curve, Jurkat-hu4-1BB-NFκB-luc2 with CHO-k1-cyno CEACAM5 clone 8: 2820
[1]
  AUC of activation curve, Jurkat-hu4-1BB-NFκB-luc2, no CEA+ cells: 1980
[4]
  AUC of activation curve, Jurkat-hu4-1BB-NFκB-luc2 with CHO-k1-human CEACAM5 clone 11: 150000
  AUC of activation curve, Jurkat-hu4-1BB-NFκB-luc2 with CHO-k1-human CEACAM5 clone 12: 146000

## DP47-4-1BBL (Fc fusion)
[3]
  AUC of activation curve, Jurkat-hu4-1BB-NFκB-luc2 with CHO-k1-cyno CEACAM5 clone 8: 4710
[1]
  AUC of activation curve, Jurkat-hu4-1BB-NFκB-luc2, no CEA+ cells: 2930
[4]
  AUC of activation curve, Jurkat-hu4-1BB-NFκB-luc2 with CHO-k1-human CEACAM5 clone 11: 8640
  AUC of activation curve, Jurkat-hu4-1BB-NFκB-luc2 with CHO-k1-human CEACAM5 clone 12: 6640
[5]
  AUC: 1300
[6]
  AUC: 700
[7]
  AUC: 752
[8]
  AUC: 430
[9]
  AUC: 148
[10]
  AUC: 140
[11]
  AUC: 520
[12]
  AUC: 11

## P1AD5108-002 DP47 huIgG1 PG LALA (Isotype control) (antibody)
[13]
  AUC: 420

From US20220267464A1
